Reference: the DeepSol protein solubility set

Experiment: soluble on expression in E. coli; label from the status in PepcDB or PDB records

Sequence | soluble on expression in E. coli
MMFLNKVDKRKIALFQLLENAPMLTESKETVMQELELSEFIVNKTVAELNADFIEFGLSEDFQIVSDGIFLTLNESGTETSATLIDCYIKESLRFAMFQDFFFQRFDSVNEFALEHFVSHTLAYKEFKELKKMLENYQITINKEFHLVGNETNLREVTTLVFLQLYQRDFSLYGKKVLEQIRNFELFFSEKVHLNQRAGYAQAKCFHFLAVSLVRTQQQFYVEKKVDSQVLKQLAGDNQQNVFNWLESLQIPEPQRTNEGNYLLLFLIAEEWLQVASAALCQRFAEIQQLNRDLLSYLKIQFQLSEEVLQGFEQKVTIVHFKLFHFPIEANYSYLKMDITYFAETYTEYFSASRQFIQEQKTNPAVWDARRFLFYRYLLLMVDALPLKKVLAPITLCVDFSFGEAYNRMIQKNIEKITEWNIIFKAHVDESVQLILSDIHFVDWPEITQIIWLAPPRPVDWSHFIKTLSALRPHSGEEKKKSS | not soluble
MMGEPARLRRLTAEEYLREEATSPVKRELVEGVPYAMAGAGRAHNLIVTNLVLLLGPLARRKGCRLYVADMKLKVGEATFYYPDLMAVCAPPPESPLYEEAPCLVVEVLSPATEGVDRREKLWRYLSLPSLEGYLLVSARERRVELYRKEGDILHQVAEEGEVPLPCLEGSLPVAEVYAGVELEGQEA | soluble
MMHIAHSAPNHTVEGLYRAHNVWLTTWLRRRLGCPHSAADLAQDTFVKVLGARDTAQIIEPRAFLTTIAKRVLCNHYRRQDLERAYYQALAELPECAAPSEEERAIILETLVELDQLLDGLPALVKRAFLMSQVDGLSHGQIAAELDISIATVKRHLNKAALRCYFAL | not soluble
MMICGVFCMYKERKRMTKKELALEYHKKGYNCTQAVACAFCGEFGVSEEEMYKIAEGFGLGMGMMDTCGALTGLFMLIGMKNSGGVEQAGKTKADTYKKTREYAAKFKEINGSVYCKELKGVETGKILAPCDKCILDAVELAEQFLKEN | not soluble
MMIENDETLNELHNDEEFCIKEQLSHVDHDEKVHVDSIVKKSECAHNYEQREKRDRSSSVDSKPEIKKICRCHESNCSKSSKYEKSSCGSKNKSGDSLSTASTGINECLNNSKNLNEPFKFFIGGIPQYITSKDTHELNGKRVDVREENNTTPSDIQRKIFVGGLNYYWTKDTLESYFSTFGEIDVVQIVLDSSGRSRCFGFVVFSNENSVAKVLKHKRHKIYDKMVEVRKAEPKKPKMSIKRSNNKNFSKFPPHIPFMAPFPPCNKETMAQWANFMYNTCGVPFLFNQRFQNLPDFYSNYNYYQNSLENIQQSEYNN | not soluble
MMIMLDPFSEKAKELLKGFGSINDFMDAIPKIVSVDDVIERIRVVKNEKLIDKFLDQDNVMDLAQFYALLGALSYSPYGIELELVKKANLIIYSERLKRKKEIKPEEISIDVSTAIEFPTEDVRKIERVYGKIPEYTMKISDFLDLVPDEKLANYYIYEGRVYLKREDLIRIWSKAFERNVERGVNMLYEIRDELPEFYRKVLGEIQAFAEEEFGRKFGEIQGGKLRPEFFPPCIKNALKGVPQGIRNYAITVLLTSFLSYARICPNPPRRNVRVKDCIKDIRVITEEILPIIIEAANRCSPPLFEDQPNEIKNIWYHLGFGYTANPSLEDSGNSTWYFPPNCEKIRANAPQLCTPDKHCKYIRNPLTYYLRRLYLEGRRNAPKRGNKRGKKELLHQLEHHHHHH | soluble
MMINVHSYESMGTFDGPGLRLVVFLQGCNFRCLYCANPDTIAGKGGTPTPPEEIVRMAMSQRPFFGKRGGITFSGGEPTFQAKALVPLVRELKERGIHVCLDSNGGLWNEDVEELFKLTDLVLLDIKEFNPNRHQTLTGRSNEQTIRTAAWLEEQGKPFWLRYVLVPGYSDFEEDIRALGEALGKYKMIQRVEILPYHTLGVHKYEAMGQEYKMKGVKENTPEQLEKAAEVFKEYFTTVVVNLEHHHHHH | soluble
MMKKFIAPLLALLVSGCQIDPYTHAPTLTSTDWYDVGMEDAISGSAIKDDDAFSDSQADRGLYLKGYAEGQKKTCQTDFTYARGLSGKSFPASCNNVENASQLHEVWQKGADENASTIRLN | soluble
MMKTRGFELITDYTDENLLPKRETAHAAGYDLKVAERTEISAGAIVLVPTGVKAYMQVGEVLYLFDRSSNPRKKGLVLINSVGVIDGDYYNNPNNEGHIFAQMKNMTDQTVVLEAGERVVQGVFMPFLLIDGDKATGTRTGGFGSTGG | soluble
MMLAGCGPIEPDYPNNKYTLTWYCTSDDGTCERVVELRRYDRASIQNNDLTIWDSQDPGGAIEALIVYSDSLPQHCDRIFYLVFFGHEIEEPRYCGNHYAFEIELSIPDEDPATSSRWVISAAPLD | not soluble
MMLVRSVFRSQLRPSVSGGLQSASCYSSLSAASAEAERTIREGPRNDWSRDEIKSVYDSPLLDLLFHGAQVHRHVHNFREVQQCTLLSIKTGGCSEDCSYCPQSSRYSTGVKAQRLMSKDAVIDAAKKAKEAGSTRFCMGAAWRDTIGRKTNFSQILEYIKEIRGMGMEVCCTLGMIEKQQALELKKAGLTAYNHNLDTSREYYPNVITTRSYDDRLETLSHVRDAGINVCSGGIIGLGEAEEDRIGLLHTLATLPSHPESVPINALLAVKGTPLEDQKPVEIWEMIRMIGTARIVMPKAMVRLSAGRVRFSMSEQALCFLAGANSIFTGEKLLTTPNNDFDADQLMFKTLGLIPKPPSFSEDDSESENCEKVASASH | not soluble
MMNNMDSIINYIYEGDYFIVTSHISPDGDNIGSTLSMYYTLKNLGKNVYYVLDDEAPLNLRFLVEGVKIYKSNEFNMKNYSLIALDCGDKMRICVSDEIKNNASKLICIDHHASNDSYGDLNYVDIDASSTCELVYNLLVRFQQIKDINIINEDIATCLYTGLVTDTGNFSYSNVHASSFEMAKNLLVLGAQKNTIIQNIYQSNSSGYYKLLGEALKGLEIFDSKVSSIVLTQDMMNRNNISFNDVDGITTYTRDIKGIEVGILFKEKKQNEIKVSFRSKNYVDVSEIAKLFGGGGHVRAAGCTIRDSIDNAKKMVLEAVLKSI | not soluble
MMNQDIEKVLISEEQIQEKVLELGAIIAEDYKNTVPLAIGVLKGAMPFMADLLKRTDTYLEMDFMAVSSYGHSTVSTGEVKILKDLDTSVEGRDILIVEDIIDSGLTLSYLVDLFKYRKAKSVKIVTLLDKPTGRKVDLKADYVGFTVPHEFVVGYGLDYKEQYRNLPYVGVLKPSVYSN | not soluble
MMTQTLLIELLTEELPPKALNNLGNHFAASVAEGLEKAQLVDGAAEFTAYASPRRLAVQVKNVKAVQADQKIVKKGPAVANAMKDGAPTKALEGFARGAGAKIEDLTIVHDGKQDVYAYEYVQIGKPLGGLLEDIINQAVKKLPIPKVMRWGSSTFTFVRPVHGLVVLHGGDIVNVSVLGLQSGNKTLGHRFLSDGEITIENADSYAAQMREQGKVVASFAERKAAIQTVLEGQARRLNATAAADEALLDEVTALVEWPVVLEAGFEEHFLAVPQECLILTMQQNQKYFPLLDQNGKLMNRFLLVSNLQTEDPSHIIQGNERVLRARLSDAEFFYKQDQKATLESRLPKLTNVVYHNKIGSQAERIERLQSIAAHIAKALGADAAAAERAARLAKADLVTEMVGEFPELQGTMGKYYARLDGETEEITEAVEQHYQPRFAGDNLPEGKIAAAVALADKLETLVGIWGIGLIPTGDKDPYALRRAALGILRMLMQYGLDVNELIQTAFNSFPQGLLNEKTPSETADFMQARLAVLLQNDYPQDIVAAVLAKQPRRLDDLTAKLQAVAAFKQLPEAAALAAANKRVQNLLKKADAELGAVNESLLQQDEEKALFAAAQGLQPKIAAAVAEGNFQTALSELASVKPQVDAFFDGVMVMAEDAAVKQNRLNLLNRLAEQMNAVADIALLGE | not soluble
MMTRKKELAIALSKLKGFKNPKVWLEQYRTPGNAASELLWLAYSLGDIEGKVVADLGAGTGVLSYGALLLGAKEVICVEVDKEAVDVLIENLGEFKGKFKVFIGDVSEFNSRVDIVIMNPPFGSQRKHADRPFLLKAFEISDVVYSIHLAKPEVRRFIEKFSWEHGFVVTHRLTTKIEIPLQFFFHRKKLERITVDIYRFSKVINSR | soluble
MMWKQAMTDVAEKTLTNIKRFNGRFPHVSEDGEHYELNNNNEWTNGFWSGILWLCYEYTNDPAFRQAAASTVRSFQQRMEQNLELDHHDIGFLYSLSSKAQWIIERDERAKQLTIEAADVLMKRWREKIELFQAWGPEGDLSNGGRIIVDCLMNLPLLFWASEVTGNPDYREAAIIHADKTRRFIVRGDDSTYHTFYFNQETGEALRGGTHQGYEDGSTWSRGQAWAIYGFAIAYRYTGNERYLETAKRTAKYFIENLPADYVAYWDFNAPITPDTKRDSSASAIASCGILELLSHLQETDPDKAFFQQSVQKQMTSLVENYASEKDAQGLIKRGSYSVRIGHAPDDYVIWGDYFYTEALMRLEKLRNGYWYEGKLEHHHHHH | soluble
MNAAVVRRTQEALGKVIRRPPLTEKLLSKPPFRYLHDIITEVIRMTGFMKGLYTDAEMKSDNVKDKDAKISFLQKAIDVVVMVSGEPLLAKPARIVAGHEPERTNELLQIIGKCCLNKLSSDDAVRRVLAGEK | soluble
MNADAPLKSYSGHHSETHKSESKKKKDKKTFEEEDDVENVKRKPAESSDDEVVVVVVKKDQKGKRGKKSKKPKKKQESSDDSSDNSDSSESSDDDKKSKKKKKKSKKDSSDSSDSSDSSDSSDDGKKKKKKKSKKDSSDDSSDSSDSSDSSDSSDDDKKKKKKSKKSKNKGSSSDSSDSSDDSSDDEKPKKKKKKSKKPKKAPKSDEEVTIKIIKKPKKKPEDLERRRHRVKKTEEHEEEKDKEEHHESNDENMEFDTRARGAPSSPKLTRRAKRSESSDDEVELQKTPEIDDNKPSRKDGDHDSDMEESEKSKKSSKKDHNHHHHHCCCGAQNEHEHTHHEEFSKTDKVVNKYHDCAKCQYKCPICT | not soluble
MNADEWMTTFRENIAQTWQQPEHYDLYIPAITWHARFAYDKEKTDRYNERPWGGGFGLSRWDEKGNWHGLYAMAFKDSWNKWEPIAGYGWESTWRPLADENFHLGLGFTAGVTARDNWNYIPLPVLLPLASVGYGPVTFQMTYIPGTYNNGNVYFAWMRFQFL | soluble
MNALSGLQTHEDSTCCNRFCRPDERSASGNSTLLRFGGFFADQTYLQVTRLMQRIHYLHQRLVIDGFVRSEEDGGVFLAFGLEHHHHHH | not soluble
MNCMWCDSTEAKESLNTVYWELPDGTKAIEIQETPCISCSSCGMDYQSDHTVKEIEDQLFLIYTKDLPKQLTYEELMGRPRLLKRNYFDF | not soluble
MNCRLGCGACCIAPSISSVIPGMPNGKAAGERCVQLSDDNLCLIFGSPERPAVCCDFEASLDVCGHSNEEALWLITNLESQTSLEHHHHHH | not soluble
MNCWMRSPRWPPTTDGSNSSQWVTPCSQMDRSVFSPTPSVPMKLFSTRTLSGTGWAVCKPVGATGVVKGLQRVRLAGLRPAHREDIAIHELVFQRDDDGAIAVCTRRLRLVERLLAKRTDEHRHTGWMGVGHIHRWGAVNECSLAIRMRWLRAPDYVYNTPRCAQLLTSESTKPNGTHGHTMTTFLLATSSVHVTAAAADYLQHRLDSAADHDIVVVAVHDPDAPSRDAGDAVNVARSRLAAFMPATETRDGAPVTEILAAVDEHDPDELLIGPHRGTDDSDGVGSMARDLLTNVDRPVIVLPLP | not soluble
MNDLTLSPIAIIHTPYKEKFSVPRQPNLVEDGVGIVELLPPYNSPEAVRGLEQFSHLWLIFQMDQIQQGKWQPTVRPPRLGGNQRVGVFASRATHRPNPLGMSKVELRQVECINGNIFLHLGAVDLVDGTPIFDIKPYIAYADSEPNAQSSFAQEKLPVKMTVEFTEQAKSAVKKREEKRPHLSRFIRQVLEQDPRPAYQQGKPSDRIYGMSLYEFNVKWRIKAGTVNCVEVIEIEKDKLEHHHHHH | soluble
